Laboratory results published in the emibetuzumab library of Makowski et al. (2022).

B1: VH:VL chains; a variant is named by its letters at X, in order (parent)
chain 1: QVQLVQSGAEVKKPGASVKVSCKASGYTFTDYXMHWVRQAPGQGLEWMGXVNPNXXXTTYNQKFEGRVTMTTDTSTSTAYMELRSLRSDDTAVYYCARXNXLDXWGQGTTVTVSS
chain 2: DIQMTQSPSSLSASVGDRVTITCSVSSSVSSIYLHWYQQKPGKAPKLLIYSTSNLASGVPSRFSGSGSGTDFTLTISSLQPEDFATYYCQVYSGYPLTFGGGTKVEIK

Variants of: B1
Assay: yeast display scFab, FACS + sequencing
Summary of the method: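 The non-specific binding call was based on sorted and sequenced yeast displaying a heavy-chain CDR mutant scFab library. Labelling used anti-Myc with biotinylated ovalbumin (260 μg/mL in PBSB, 3 h, room temperature) or soluble membrane proteins (130 μg/mL, 20 min on ice), and FACS collected the top 25% and bottom 10% of binders in two replicates. Positive meant present in ≥3 of 4 pooled positive samples and in no negatives, and negative meant the converse.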

Row | Variant | non-specific binding call
1 | DAGTGSWD | no binding
2 | VAGTSDGA | no binding
3 | VAGTGDAA | no binding
4 | SAGRSDLV chain 1 R67H | no binding
5 | FAKTDAGF chain 1 G108D | binds
6 | YARADSGD | no binding
7 | YAGKTSAD | binds
8 | YAGRGFGA | binds
9 | YAGRGFGF | binds
10 | DAKEGDAD | no binding
11 | DAKEGDAV | no binding
12 | DAGKGSVD | no binding
13 | AARADAGA | no binding
14 | AARADSSA | no binding
15 | YARADDVA | no binding
16 | YARADDVF | no binding
17 | DARENAGY | no binding
18 | YAGGTSSD | no binding
19 | YAKEGDGV | no binding
20 | DAKEGSLD | no binding
21 | DAGGGDVV | no binding
22 | DAGGGDVA | no binding
23 | DAKENAVY | no binding
24 | DAGTAFSS | binds
25 | FAGRGSAD | binds

Row | Variant | non-specific binding call
26 | YAGKGFGA | binds
27 | FARAGDWV | binds
28 | VAKEGAWV | binds
29 | YARETDGA | no binding
30 | YAGRAAWD | binds
31 | AARADSWV | no binding
32 | DARADSGV | no binding
33 | FARAAALD | binds
34 | AARADAVV | no binding
35 | AARADAVY | no binding
36 | AARADAVA | no binding
37 | VAGTGDLA | no binding
38 | VAGTGDLY | no binding
39 | SAREGYSV | binds
40 | FAGGGDWV | no binding
41 | FAGGGDGD | no binding
42 | DAKEGSSA | no binding
43 | YAGGGDWA | no binding
44 | DAGGGSSD | no binding
45 | DAGGGSSS | no binding
46 | FAGGGDVY | no binding
47 | YAGRGVVD | binds
48 | FAGTGSWD | no binding
49 | YAGRADVV | no binding
50 | YAGKDDWV | no binding

Row | Variant | non-specific binding call
51 | SAREGDWV | no binding
52 | SAGRGYGD | binds
53 | YAGKNAVV | no binding
54 | DAGKSDWY | no binding
55 | FARENFLA chain 1 V51A | binds
56 | VAKADDWF | no binding
57 | DAGGGDGA | no binding
58 | FAGRGVGD | binds
59 | VARADSGV | no binding
60 | SAREGDLA | no binding
61 | AARETVGA | binds
62 | VAKKNASF | no binding
63 | YAGRGDSA | no binding
64 | VAGKGAGD | no binding
65 | AARADDVD | no binding
66 | AARADDVY | no binding
67 | AARADDVA | no binding
68 | YAKRDALA | no binding
69 | VAGTGSLD | no binding
70 | SAREGSSA | no binding
71 | FAGGGDLV | no binding
72 | VAGRSDLV chain 1 R67H | no binding
73 | YARETDVV | no binding
74 | DAKRDSAS | no binding
75 | DARADSLV | no binding

Row | Variant | non-specific binding call
76 | YAGTGAVA | no binding
77 | SAREGDAV | no binding
78 | YAGTGVVD | binds
79 | YAGRSFGS | binds
80 | FAKEGFWD | binds
81 | AAGRAYGA | binds
82 | YAKGDYSV | no binding
83 | YAREAALS | binds
84 | VAGTGASD | no binding
85 | AAKEGALV | no binding
86 | DARETFLD | no binding
87 | YAGRGDLV | no binding
88 | YAGRGDLD | no binding
89 | YAGRGDLA | no binding
90 | VAGRGSAA | binds
91 | YAGRGDWF | no binding
92 | YAKRGSWA | binds
93 | YARAGYAV | binds
94 | SAGRGDWD | no binding
95 | DAGTGDGV | no binding
96 | DAKKNASF | no binding
97 | DAKENAGD | no binding
98 | DAGGGYSV | no binding
99 | VAGTGDGY | no binding
100 | VAGTGDGA | no binding

Row | Variant | non-specific binding call
101 | VAGTGDGV | no binding
102 | DAGKGAVY | no binding
103 | DAGKGAVV | no binding
104 | VAGTGDVA | no binding
105 | VAGTGDVY | no binding
106 | VAGTGDVF | no binding
107 | DAGTGSGA | no binding
108 | FAKEGDGD | no binding
109 | DAGGGDWD | no binding
110 | DAGGGDWV | no binding
111 | SAGRGFGF | binds
112 | VAKADALD | no binding
113 | FAGRSDWV chain 1 R67H | no binding
114 | DAGRSDLV chain 1 R67H | no binding
115 | DAGTGAGD | no binding
116 | FAGGGFAV | binds
117 | FAGRAAWA | binds
118 | VAGTGFWV | binds
119 | YAKADYSS | binds
120 | YARADDAS | no binding
121 | SAGRGSAA | binds
122 | SAGRGVGS | binds
123 | DAKEGAAA | no binding
124 | YARADAAA | no binding
125 | DAGTDAGD | no binding

Row | Variant | non-specific binding call
126 | DAKEGDGV | no binding
127 | YAGRGVGD | binds
128 | SAGTGSWD | no binding
129 | AAGRSDLV chain 1 R67H | no binding
130 | AARADDAV | no binding
131 | AARADDAA | no binding
132 | VAREDDWA | no binding
133 | FAGRDAVV | binds
134 | YAGRGSAS | no binding
135 | YARADSSV | no binding
136 | YARADSSD | no binding
137 | VARAADAD | no binding
138 | DAGKGAGD | no binding
139 | YAGRGASA | no binding
140 | YAGRGDAD | no binding
141 | YAGRGDAS | no binding
142 | AAKRGSWV | no binding
143 | SAGKDDLA | no binding
144 | YAGRGDGA | no binding
145 | AARADDGS | no binding
146 | AARADDGV | no binding
147 | VARETDVA | no binding
148 | FAGRGYSD | binds
149 | DAKEGAGD | no binding
150 | DAKEGDVV | no binding

Row | Variant | non-specific binding call
151 | YAGRGDVD | no binding
152 | YAGRGDVY | no binding
153 | YAGRGDVF | no binding
154 | YAGRGDVS | no binding
155 | YAGRTAGV | binds
156 | AARADSLS | no binding
157 | YAREDDGA | no binding
158 | FAGRGSSD | binds
159 | DAGGGYGV | no binding
160 | FAKRGAWS | binds
161 | SAGRGDGS | no binding
162 | FARETFGV | binds
163 | YARGADGS | no binding
164 | SAREGALD | no binding
165 | DAGRGAVS | no binding
166 | DAKENDVA | no binding
167 | DAKENDVF | no binding
168 | VAREDDLS | no binding
169 | VAGKGVLD | binds
170 | DAGKGALF | no binding
171 | VAGTDAGD | no binding
172 | VAGTDAGA | no binding
173 | VAKENAVA | no binding
174 | AAGRGFLD | no binding
175 | YAREGSGA | binds

Row | Variant | non-specific binding call
176 | FAGTSVGS | binds
177 | VAGTGSSV | no binding
178 | VAGTGSSA | no binding
179 | VAGTGSSD | no binding
180 | YAKADSGA | binds
181 | AARADSGY | no binding
182 | AARADSGD | no binding
183 | VAGTGSAD | no binding
184 | VAGRGVGD | binds
185 | DAKEGDLV | no binding
186 | AARADDWV | no binding
187 | AARADDWD | no binding
188 | VAGTGAVV | no binding
189 | DAGRGDGY | no binding
190 | DAGRGDGF | no binding
191 | YAGKGAWV | binds
192 | SAKRDSAS | no binding
193 | AARADDSV | no binding
194 | AARADDSA | no binding
195 | FAGRDVGV | binds
196 | FAGRGALD | binds
197 | YARETAGV | binds
198 | VAGTDDWV | no binding
199 | YAGKTAWS | binds
200 | YAKRDAGD | no binding

Row | Variant | non-specific binding call
201 | VAKRDSAS | no binding
202 | YAGTGFVD | binds
203 | YAGTGFWV | binds
204 | YAGTGDLV | no binding
205 | YARAGSVS | binds
206 | YARADSLD | no binding
207 | YARADDSA | no binding
208 | YARADDGS | no binding
209 | YARADDGD | no binding
210 | VAREGDLA | no binding
211 | AARADSAD | no binding
212 | AARADFGV | no binding
213 | YAGKSAGD | no binding
214 | YAKGDDAS | no binding
215 | DAKTDDGV | no binding
216 | VAGTGDWF | no binding
217 | VAGTGDWA | no binding
218 | VAGTGDWY | no binding
219 | VAGTGDWD | no binding
220 | VAGTGDWV | no binding
221 | FAKAGFVA | binds
222 | FAGGSFAS | binds
223 | AAGGNAWS chain 1 G66S | no binding
224 | VAGRSFGS | binds
225 | SARADSGV | no binding
